In test [1] the target is T1, Aβ1-42 protofibrils (UniProt P05067 672-713).
T1 construct: domain: Aβ1-42; Aβ numbering is not APP numbering; also called Aβ protofibrils; Aβ-protofibrils
The experiment in a line: inhibition ELISA: antibody pre-incubated in solution with Aβ protofibrils, then transferred to Aβ coated plates; BAN2401 is the reference. As to the method: (§1) The binding characteristics towards Aβ protofibrils and Aβ monomers of the antibodies of the invention compared to BAN2401 were analyzed using an inhibition ELISA in which antibodies were pre-incubated in solution with Aβ protofibrils or Aβ monomers and then transferred to Aβ coated ELISA plates, as described in Tucker et. al. J Alzheimers Dis. 2015; 43(2):575-88. doi: 10.3233/JAD-140741. PubMed PMID: 25096615, and references cited therein.
For orientation: ELISA stands for enzyme-linked immunosorbent assay.

The target in test [2] is T2, Aβ1-40 monomers (UniProt P05067 672-711).
T2 construct: domain: Aβ1-40; Aβ numbering is not APP numbering; also called Aβ monomers; Aβ monomer
The experiment in a line: inhibition ELISA: antibody pre-incubated in solution with Aβ monomers, then transferred to Aβ coated plates. On the procedure:
as §1

For test [3], the target named is T1, Aβ1-42 protofibrils. The experiment in a line: inhibition ELISA: antibody pre-incubated in solution with Aβ protofibrils, then transferred to Aβ coated plates. As to the method:
as §1

T1 sequence (P05067 672-713 limits assumed): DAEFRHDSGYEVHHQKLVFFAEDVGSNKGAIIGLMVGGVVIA
T2 sequence (P05067 672-711 limits assumed): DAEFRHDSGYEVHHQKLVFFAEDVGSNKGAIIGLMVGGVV

B1: BAN2401 (antibody, V domains shown)
VH: EVQLVESGGGLVQPGGSLRLSCSASGFTFSSFGMHWVRQAPGKGLEWVAYISSGSSTIYYGDTVKGRFTISRDNAKNSLFLQMSSLRAEDTAVYYCAREGGYYYGRSYYTMDYWGQGTTVTVSS
VL: DVVMTQSPLSLPVTPGAPASISCRSSQSIVHSNGNTYLEWYLQKPGQSPKLLIYKVSNRFSGVPDRFSGSGSGTDFTLRISRVEAEDVGIYYCFQGSHVPPTFGPGTKLEIK
notes: also called humanized version of mAb158
Consider B1, for which, in test [1], the binding result was “binds”.

B2: A17D/R79T (antibody, human IgG1, kappa, V domains shown)
VH: EVQLVESGGGLVQPGGSLRLSCSASGFTFSSFGMHWVRQAPGKGLEWVAYISSGSSTIYYGDTVKGRFTISRDNAKNSLFLQMSSLRAEDTAVYYCAREGGYYYGRSYYTMDYWGQGTTVTVSS
VL: DVVMTQSPLSLPVTPGDPASISCRSSQSIVHSNGNTYLEWYLQKPGQSPKLLIYKVSNRFSGVPDRFSGSGSGTDFTLTISRVEAEDVGIYYCFQGSHVPPTFGPGTKLEIKR
For the molecule B2, the binding result in test [2] and in test [3] was “binds” each time.

B3: A17D (antibody, human IgG1, kappa, V domains shown)
VH: EVQLVESGGGLVQPGGSLRLSCSASGFTFSSFGMHWVRQAPGKGLEWVAYISSGSSTIYYGDTVKGRFTISRDNAKNSLFLQMSSLRAEDTAVYYCAREGGYYYGRSYYTMDYWGQGTTVTVSS
VL: DVVMTQSPLSLPVTPGDPASISCRSSQSIVHSNGNTYLEWYLQKPGQSPKLLIYKVSNRFSGVPDRFSGSGSGTDFTLRISRVEAEDVGIYYCFQGSHVPPTFGPGTKLEIKR
With B3, the binding result in test [2] and in test [3] was “binds” each time.

B4: A17D/R82S (antibody, human IgG1, kappa, V domains shown)
VH: EVQLVESGGGLVQPGGSLRLSCSASGFTFSSFGMHWVRQAPGKGLEWVAYISSGSSTIYYGDTVKGRFTISRDNAKNSLFLQMSSLRAEDTAVYYCAREGGYYYGRSYYTMDYWGQGTTVTVSS
VL: DVVMTQSPLSLPVTPGDPASISCRSSQSIVHSNGNTYLEWYLQKPGQSPKLLIYKVSNRFSGVPDRFSGSGSGTDFTLRISSVEAEDVGIYYCFQGSHVPPTFGPGTKLEIKR
In the case of B4, the binding result in test [2] and in test [3] was “binds” in each case.

B5: A17D/R79T_DI 7 (antibody, human IgG1, kappa)
heavy: not shown
light: DVVMTQSPLSLPATPGDPASISCRSSQSIVHSNGNTYLEWYLQKPGQSPKLLIYKVSNRFSGVPDRFSGSGSGTDFTLTIQRVEAEDVGIYYCFQGSHVPPTFGPGTKLEIKRTVAAPSVFIFPPSDEQLKSGTASVVCLLNNFYPREAKVQWKVDNALQSGNSQESVTEQDSKDSTYSLSSTLTLSKADYEKHKVYACEVTHQGLSSPVTKSFNRGEC
notes: also called deimmunized variant 7 of A17D/R79T
As for B5, the binding result in test [2] and in test [3] was “binds” throughout.

B6: A17D/R79T_DI 6 (antibody, human IgG1, kappa)
heavy: not shown
light: DVVMTQSPLSLPVTPGDPASVSCRSSQSIVHSNGNTYLEWYLQKPGQSPKLLIYKVSNRFSGVPDRFSGSGSGTDFTLTISRVDAEDVGIYYCFQGSHVPPTFGPGTKLEIKRTVAAPSVFIFPPSDEQLKSGTASVVCLLNNFYPREAKVQWKVDNALQSGNSQESVTEQDSKDSTYSLSSTLTLSKADYEKHKVYACEVTHQGLSSPVTKSFNRGEC
notes: also called deimmunized variant 6 of A17D/R79T
With B6, the binding result in test [2] and in test [3] was “binds” in each case.

B7: A17D/R79T_DI 3 (antibody, human IgG1, kappa)
heavy: not shown
light: DVVMTQSPLSLPATPGDPASISCRSSQSIVHSNGNTYLEWYLQKPGQSPKLLIYKVSNRFSGVPDRFSGSGSGTDFTLTIQRVEAEDVGIYYCFQGSHVPPTFGPGTKLEIKRTVAAPSVFIFPPSDEQLKSGTASVVCLLNNFYPREAKVQWKVDNALQSGNSQESVTEQDSKDSTYSLSSTLTLSKADYEKHKVYACEVTHQGLSSPVTKSFNRGEC
notes: also called deimmunized variant 3 of A17D/R79T
Take B7: the binding result in test [2] and in test [3] was “binds” each time.

B8: A17D/R79T/R82S (antibody, human IgG1, kappa, V domains shown)
VH: EVQLVESGGGLVQPGGSLRLSCSASGFTFSSFGMHWVRQAPGKGLEWVAYISSGSSTIYYGDTVKGRFTISRDNAKNSLFLQMSSLRAEDTAVYYCAREGGYYYGRSYYTMDYWGQGTTVTVSS
VL: DVVMTQSPLSLPVTPGDPASISCRSSQSIVHSNGNTYLEWYLQKPGQSPKLLIYKVSNRFSGVPDRFSGSGSGTDFTLTISSVEAEDVGIYYCFQGSHVPPTFGPGTKLEIKR
With B8, the binding result in test [2] and in test [3] was “binds” each time.

B9: A17D/R79T_DI 1 (antibody, human IgG1, kappa)
heavy: not shown
light: DVVMTQSPLSLPVTPGDPASVSCRSSQSIVHSNGNTYLEWYLQKPGQSPKLLIYKVSNRFSGVPDRFSGSGSGTDFTLTIQRVEAEDVGIYYCFQGSHVPPTFGPGTKLEIKRTVAAPSVFIFPPSDEQLKSGTASVVCLLNNFYPREAKVQWKVDNALQSGNSQESVTEQDSKDSTYSLSSTLTLSKADYEKHKVYACEVTHQGLSSPVTKSFNRGEC
notes: also called deimmunized variant 1 of A17D/R79T
For the molecule B9, the binding result in test [2] and in test [3] was “binds” each time.

B10: A17D/R79T_DI 8 (antibody, human IgG1, kappa)
heavy: not shown
light: DVVMTQSPLSLPATPGDPASISCRSSQSIVHSNGNTYLEWYLQKPGQSPKLLIYKVSNRFSGVPDRFSGSGSGTDFTLTISRVDAEDVGIYYCFQGSHVPPTFGPGTKLEIKRTVAAPSVFIFPPSDEQLKSGTASVVCLLNNFYPREAKVQWKVDNALQSGNSQESVTEQDSKDSTYSLSSTLTLSKADYEKHKVYACEVTHQGLSSPVTKSFNRGEC
notes: also called deimmunized variant 8 of A17D/R79T
For B10, the binding result in test [2] and in test [3] was “binds” each time.

B11: A17D/R79T_DI 5 (antibody, human IgG1, kappa)
heavy: not shown
light: DVVMTQSPLSLPVTPGDPASVSCRSSQSIVHSNGNTYLEWYLQKPGQSPKLLIYKVSNRFSGVPDRFSGSGSGTDFTLTIQRVEAEDVGIYYCFQGSHVPPTFGPGTKLEIKRTVAAPSVFIFPPSDEQLKSGTASVVCLLNNFYPREAKVQWKVDNALQSGNSQESVTEQDSKDSTYSLSSTLTLSKADYEKHKVYACEVTHQGLSSPVTKSFNRGEC
notes: also called deimmunized variant 5 of A17D/R79T
Take B11: the binding result in test [2] and in test [3] was “binds” each time.

B12: A17D/R79T_DI 2 (antibody, human IgG1, kappa)
heavy: not shown
light: DVVMTQSPLSLPVTPGDPASVSCRSSQSIVHSNGNTYLEWYLQKPGQSPKLLIYKVSNRFSGVPDRFSGSGSGTDFTLTISRVDAEDVGIYYCFQGSHVPPTFGPGTKLEIKRTVAAPSVFIFPPSDEQLKSGTASVVCLLNNFYPREAKVQWKVDNALQSGNSQESVTEQDSKDSTYSLSSTLTLSKADYEKHKVYACEVTHQGLSSPVTKSFNRGEC
notes: also called deimmunized variant 2 of A17D/R79T
Turning to B12, the binding result in test [2] and in test [3] was “binds” in each case.

B13: A17D/R79T_DI 4 (antibody, human IgG1, kappa)
heavy: not shown
light: DVVMTQSPLSLPATPGDPASISCRSSQSIVHSNGNTYLEWYLQKPGQSPKLLIYKVSNRFSGVPDRFSGSGSGTDFTLTISRVDAEDVGIYYCFQGSHVPPTFGPGTKLEIKRTVAAPSVFIFPPSDEQLKSGTASVVCLLNNFYPREAKVQWKVDNALQSGNSQESVTEQDSKDSTYSLSSTLTLSKADYEKHKVYACEVTHQGLSSPVTKSFNRGEC
notes: also called deimmunized variant 4 of A17D/R79T
Regarding B13, the binding result in test [2] and in test [3] was “binds” each time.
